B1: Fab3-1 (Fab, V domains shown)
VH: EVQLLESGGGLVQPGGSLRLSCEASGFTFSRYPMNWVRQAPGKGLEWVSHISASGGTTYYADTVKGRFSISRDNSKNTLYLEMNSLRAEDTAIYFCAKDYPPDEVTMIVVGMPYFDSWGLGTLVSVSS
VL: not shown
B2: Fab2-5 (Fab, V domains shown)
VH: EVQLVESGGGLVKPGGSPRLSCAASGFNFGSYSMNWVRQAPGKGLEWVSSISSSSSYIYYADSVKGRFTISRDNAKHSLYLQVNSLRAEDTAVYYCARDPTTYGYNSAWDKKGWYFDLWGRGTLLTVS
VL: VLTQPPSVSAAPGQMVTISCSGSSSNIGNDYISWYQQLPGTAPKLLIYDNNERPSGIPDRFSGSKSGTSATLGITGVQTGDEADYYCGTWDSSLSAWVFGEGTKLTVV
B3: Fab2-1 (Fab, V domains shown)
VH: EVQLLESGGGLVQPGKSLRLSCAASGFSFSNYAMSWVRQAPGKGLEWVSGISGSGGSTNYAESVRGRFTISRDNSKNTLYLEMNSLRVEDTAVYYCAKGMSYYDRSGYFWAKYHYGMDVWGQGITVTVSS
VL: not shown
B4: Fab1-5 (Fab, V domains shown)
VH: EVQLVESGGGLVKPGGSLRLSCAASGFMFSSYSMNWVRQAPGKGLEWVSSISRSDSYIDYADSVKGRFTISRDTAMNVLYLQMDSLRAEDTGVYYCARTHVFNMFREVINDDYYGMDVWGQGTTVTVS
VL: ALTQPASVSGSPGQSITISCTGTSSDFGIYNSVSWYQHHPGKAPKLMIFGVSNRPSGVSNRFSGSKSGNTASLSISGLQAEDEADYYCSSFTARSTVVFGGGTKLTVL
B5: Fab1-3 (Fab, V domains shown)
VH: VQLVESGGGVVQPGRSLRLSCAASGFSFSSFVFHWVRQAPGKGLEWVAVISYDGSNKNYADSVKGRFTISRDNSKNTLFLQMNSLSADDTAVYYCARGAICSSTTCYLGDSYYFYGMDVWGQGTTVTVSS
VL: LTQPPSVSGAPGQRVTISCTGSRSNIGAGYDVHWYQQLPGTAPKLLIYGNSNRPSGVPDRFSGSKSGTSASLAITGLQTDDEADYYCQSYDSSLSGSVFGGGTKLTVL
B6: Fab3-5 (Fab, V domains shown)
VH: EVQLVESGGGLVQPGGSLRLSCAASGFTFSNYGMNWVRQAPGKGLEWVSYISSGGTIYYADSVKGRFTISRDNAKNSVYLQMNSLRAEDTAVYYCARDPAYCGDDCYTIPAHYFDYWGQGTPVTVS
VL: DIQMTQSPSSLSASVGDRVTITCRTSQSISRYLNWYQQKPGKAPKLLIYAASSLQSGVPSRFTGSGSGTDFTLTISSLQPEDFATYYCQQSYSIPPVTFGQGTRVD
B7: Fab1-4 (Fab, V domains shown)
VH: QVQVVESGAEVKKPGASVKVSCKASGYAFTTYYMHWVRQAPGQGLEWMGLINPSGDSITYAQRFQGRVTMTKDTSTSTVYMELSSLRSEDTAIYYCARDPNVAFYYGSGNYYKDNAMDVWGQGTTVTVSS
VL: not shown
B8: Fab2-2 (Fab, V domains shown)
VH: QVQLQESGPGLVKPSVTLSLTCTVSGDSISTYYWSWVRQPPGKGLEWIGYIYYSGNTNYNPSLKSRVTMSVDTSKNQFSLKLNSVTAADTAVYYCARTHHDYGDYRPSYYFDYWGQGTLVTVSS
VL: QSALTQPASVSGSPGQSITISCTGTSSDVGAYDYVSWYQQHPGKAPKLMIYDVSNRPSSGVSNRFSGSKSGNTASLTISGLQAEDEADYYCSSYTSSSTVILGGGTKLTVL
B9: Fab2-4 (Fab, V domains shown)
VH: EVQLLESGGGLVHPGGSLRLSCAASGFPFSNFAMSWVRQAPGKGLEWVSTISGSSGSTYYADSVRGRFTISRDYSKNTVYLEMNSLRADDTAIYYCAKDRMITFGEVIVKHYDAFEIWGQGTRVAV
VL: DIQMTQSPSSLSASVGDRVTITCRASQTISTNVNWYQQKPGKAPKLLIYAASSLQSGVPSRFSGSGSGTDFTLTISSLQPEDFATFYCQQSYSAPLTFGEGTKV
B10: Fab3-6 (Fab, V domains shown)
VH: EVQLVESGGGLVQPGGSLRLSCSASGFHFSSYEMNWVRQAPGKGLEWVSYISSSGTYIDYADSVKGRFTISRDNPANSLYLQMYSLRAEDTAVYYCARRLWFGELPYSYYYGMDVWGQGTTVTVSS
VL: ALTQPASVSGSPGQSITISCTGTSSDIGGYNYVSWYQQHPGKAPELLIFDVSNRPSGVSNRFSGSKSGNTASLTISGLQAEDEADYHCCSYTRTSTVIFGGGTKLTVL
B11: Fab2-7 (Fab, V domains shown)
VH: EVQLLESGGGLVQPGGSLRLSCAASGFTFSTYAMNWVRQAPGKGLEWVAGISASGGSAYYVDSVEGRFTISRDNSNNMLYLQMNSLRAEDTAVYYCAKAVYAITMVRGSITTNYYHYYAMDVWGQGTTVTV
VL: EIVLTQSPGTLSLSPGERATLSCRASQGVSSNYLAWYQQKPGQAPRLLIYDASNRATGIPDRFSGSGSGTDFTLTISRLEPEDFAVYYCQQYGSSPPLTFGGGTKVQI
B12: Fab1-2 (Fab, V domains shown)
VH: EVQLVESGGGLVQPGGSLRLSCAASGFIFSNYWMSWVRQAPGKGPEWVANIKQDGSANHYVDSVKGRFTISRDNAKNSLYLQMNSLRAEDTAVYYCAREAYQDWNYDYWGQGTLVTVSS
VL: DIQMTQSPSSLSASVGDRVTVTCRASEFISRYLNWYQQKPGKAPKVLIYAASSLQSGVPSRFSGSGSGTDFTLTISSLQPEDFATYYCQQSYSTPYTFGQGTKLEIK
B13: Fab3-3 (Fab, V domains shown)
VH: QVQLQESGPGLVKSSETLSLTCTVSGESISSSSHYWGWIRQPPGKGLEFLGNVYYLGSTYYNPSLESRVTILLDTSKNQFSLKVNSVTVADTAVYYCARHGAGSYSGLFFDYWGQGARVIVSS
VL: DIQMTQSPSFVSASVGDRVNITCRASQGINSWLAWYQQKPGKAPKLLIYSASSLQSGVPSRFSGSGSGTDFTLTISTLQPEDFATYYCQQANSFPYTFGQGTKVD
B14: Fab1-7 (Fab, V domains shown)
VH: QVQLQESGPGLVKPSETLSLTCTVSGDSIRSYYWSWIRQPPGKGLEWIGHIYYSGSTNYKPSLKSRATILVDTSKNQFSLKLRSVTAADTAVYYCAREMTGVAGRGWDHWGQGTLVTVSS
VL: ALTQPPSASGTPGQRVTISCSGSSSNIGSNTVNWYQQLPGTAPKLLIFINNQRPSGVPDRFSGSKSGTSASLAISGLQSEDEADYYCTTWDGSLNGYVFGTRTEVTVL
B15: Fab2-6 (Fab, V domains shown)
VH: VQLLESGGALVQPGGSLRLSCAASGFSFSNYAMSWVRQAPGKGLEWVSTISASGGTTYFADSVKGHFTISRDNSKNTLYLQMDSLRAEDTAVYYCAKDPNYYDLSGYFLGGYYFDYWGQGTLVTVSS
VL: EIVLTQSPGTLSLSPGERATLSCRASQSVRSSYLAWYQQKPGQAPRLLIYGASSRATDIPDRFSGSGSGTDFTLTISRLEPEDFAVYYCQQYGTSPAFGGGTKV
B16: Fab3-2 (Fab, V domains shown)
VH: EVQLLESGGGLVQPGGSLRLSCAASGFTFSNYAMSWVRQAPGKGLEWVSLISGSGGSIDYADSVKGRFTISRDNSKNTLYLQMDSLRAEDTAVYYCSKDPIYYDLSGYYAGRIYYFDYWGQGTLVTVSS
VL: EIVMTQSPATLSVSPGDTATLSCRASHSVSRDLAWYQQKPGQAPRLLIYDASTRATGIPARFSGSGSGTEFTLTISSLQSEDFAVYYCQQYINWVTFGPGTKVDIE
B17: Fab1-1 (Fab, V domains shown)
VH: EVQLVESGGGLVKPGGSLRLSCAASGVPFSDAWMNWVRQAPGKGLEWVGRIKSKKDGGTADYAAPVKGRFSISRDDSKKMLYLHMNSLKTEDTAVYYCTTEPSGYCSNGLCYTGNYWGQGTLVTVSS
VL: QPVLTQSSSASASLGSSVKLTCTLSSGHITYIIAWHQQQPGKAPRYLMKLEDSGSYNKGSGVPDRFSGSSSGADRYLTISNLQFEDEADYYCETWDSYTRVFGGGTKLT
B18: Fab3-7 (Fab, V domains shown)
VH: QVQLQESGPGLVKPSETLSLTCTVSGGSISNYYWNWIRQPPGKGLEWIGYVHYSGSTNYNPSLKSRVSVSVDTSKNQFSLNLGSVTAADTAVYYCARQSRSYYNEVITDPKYNFDYWGQGTLVTVSS
VL: QSALTQPASVSGSPGQSITISCTGTSSDVGGYDYVSWYQQHPGKAPKLMIYDVSNRPSGVSNRFSGSKSGNTASLTISGLQAEDEADYYCSSYTSISTLVFGGGTKLTVL
B19: Fab2-3 (Fab, V domains shown)
VH: VQLVESGGGLVKPGGSLRLSCATSGFTFSDYYMSWIRQAPGKGLEWVSYISSSGSTIYYADSVKGRFTMSRDNAKNSLFLRMNSLRAEDTAVYYCARDQITVDREVIRAHYYYGMDVWGQGTTVTVS
VL: DIQMTQSPSSVSASVGDRVTITCRASQGINSYLAWYQQKPGKAPKLLIYAASSLESGVPSRFSGSGSGTDFTLTISSLQPEDFATYYCQQANSFPLTFGGGTKVDI
B20: Fab3-4 (Fab, V domains shown)
VH: AVESGGGLVKPGGPLRLSCAASGFSLSDNYMTWIRQAPGKGLEWVSYISSSGSFINYADSVKGRFTISRDNAKNSLYLQMNSLRAEDTAVYYCARVLSSGGLTTSWRALWYFDVWGRGTLVTVS
VL: TVVTQEPSFSVSPGGTVTLTCGLTSGSVSTSYYPSWYQQTPGQTPRTLIYSTNIRSSGVPDRFSGSILGNKAALTITGAQADDECDYYCVLYMGSGIWVFGGGTKLTVL
B21: Fab1-6 (Fab, V domains shown)
VH: QVQLVESGAEVKQPGASVKVSCKASGYIFTSHNIHWVRKAPGQGLEWMGKINPSGGDANYAQKFQGRVVMTRDTSTNTVYVQLRSLRFEDTAVYYCARVHDFWSGYHRALDIWGQGTMVIVSS
VL: VLTQPPSASGTPGQTVTISCSGSSSNVGSHSVNWYQHLPGTAPKLLIYSNHRRPSGVPDRFSGSKSDTSASLAISGIQSEDEADYYCATWDGRLNVLFGGGTKLTVL

biological target: AAV9 capsid (adeno-associated virus serotype 9 (AAV9), UniProt Q6JC40); assay: cryo-EM structure

Binder | binding result | stoichiometry N [Fabs per capsid]
B1 | binds | –
B2 | binds | –
B3 | binds | –
B4 | binds | –
B5 | binds | –
B6 | binds | –
B7 | binds | –
B8 | binds | –
B9 | binds | –
B10 | binds | –
B11 | – | ≤ 60
B12 | binds | –
B13 | binds | –
B14 | binds | –
B15 | binds | –
B16 | binds | –
B17 | binds | –
B18 | binds | –
B19 | binds | –
B20 | binds | –
B21 | – | ≤ 24

From paper doi:10.1101/2024.05.01.590489 (bioRxiv, 2024)
